Data set [1] addresses T1, aryl hydrocarbon receptor (AhR), wild type (Mus musculus, UniProt P30561).
T1 construct: wtAhR (mβAhR/pcDNA3), synthesized in vitro in rabbit reticulocyte lysate
T1 sequence (P30561 10-848): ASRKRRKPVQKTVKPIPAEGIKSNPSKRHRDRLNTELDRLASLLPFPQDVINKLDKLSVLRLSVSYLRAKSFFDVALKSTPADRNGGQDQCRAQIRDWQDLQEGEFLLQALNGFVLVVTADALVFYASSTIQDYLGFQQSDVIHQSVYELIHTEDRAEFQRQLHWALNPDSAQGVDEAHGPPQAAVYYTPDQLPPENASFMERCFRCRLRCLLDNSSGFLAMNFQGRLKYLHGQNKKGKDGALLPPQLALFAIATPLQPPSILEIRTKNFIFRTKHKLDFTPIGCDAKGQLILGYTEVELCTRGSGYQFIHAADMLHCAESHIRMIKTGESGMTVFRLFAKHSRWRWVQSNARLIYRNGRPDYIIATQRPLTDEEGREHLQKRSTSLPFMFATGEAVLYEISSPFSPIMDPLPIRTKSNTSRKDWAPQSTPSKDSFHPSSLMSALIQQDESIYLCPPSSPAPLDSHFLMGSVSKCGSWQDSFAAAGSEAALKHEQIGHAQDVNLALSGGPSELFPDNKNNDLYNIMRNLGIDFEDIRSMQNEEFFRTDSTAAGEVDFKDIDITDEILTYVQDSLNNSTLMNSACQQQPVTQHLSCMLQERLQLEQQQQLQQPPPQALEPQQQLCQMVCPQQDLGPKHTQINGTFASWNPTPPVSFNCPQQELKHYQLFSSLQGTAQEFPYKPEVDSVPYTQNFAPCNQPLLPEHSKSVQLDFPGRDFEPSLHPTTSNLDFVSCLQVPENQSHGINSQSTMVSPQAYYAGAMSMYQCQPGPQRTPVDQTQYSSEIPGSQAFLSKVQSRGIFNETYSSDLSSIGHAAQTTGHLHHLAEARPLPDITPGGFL
Kind of data set: [3H]TCDD saturation binding, hydroxyapatite assay.

For data set [2], the target named is T2, aryl hydrocarbon receptor (AhR) (Mus musculus, UniProt P30561, D371A).
T2 construct: mutant of mβAhR/pcDNA3, synthesized in vitro in rabbit reticulocyte lysate
T2 sequence (P30561 10-848 D371A): T1 sequence (P30561 10-848) with D362A
Kind of data set: [3H]TCDD saturation binding, hydroxyapatite assay.

In data set [3] the target is heat shock protein 90 (rabbit (endogenous in reticulocyte lysate)) (UniProt P30946).
The subject of another data set is AhR A375V;ARNT. Kind of data set: EMSA. As to conditions: MEDG (25 mM MOPS pH 7.5, 1 mM EDTA, 1 mM DTT, 10% glycerol), 150 mM KCl (no added KCl for AhRdPASB and AhR/PASB-ARNT), AhR:ARNT:buffer 1:1:8, 10 nM TCDD or 1% …. (In general: Mobility shift assays separate free from complexed probe on a gel.)
In another data set the test system is AhR D371A;ARNT. Kind of data set: EMSA. As to conditions: MEDG (25 mM MOPS pH 7.5, 1 mM EDTA, 1 mM DTT, 10% glycerol), 150 mM KCl (no added KCl for AhRdPASB and AhR/PASB-ARNT), AhR:ARNT:buffer 1:1:8, 10 nM TCDD or 1% ….
The subject of the next data set is AhR F281A;ARNT. The data set is described as follows: EMSA. The note with it: MEDG (25 mM MOPS pH 7.5, 1 mM EDTA, 1 mM DTT, 10% glycerol), 150 mM KCl (no added KCl for AhRdPASB and AhR/PASB-ARNT), AhR:ARNT:buffer 1:1:8, 10 nM TCDD or 1% ….
The subject of the next data set is AhR R217A;ARNT. The data set is described as follows: EMSA. The note with it: MEDG (25 mM MOPS pH 7.5, 1 mM EDTA, 1 mM DTT, 10% glycerol), 150 mM KCl (no added KCl for AhRdPASB and AhR/PASB-ARNT), AhR:ARNT:buffer 1:1:8, 10 nM TCDD or 1% ….
For a further data set, the system named is AhR/PASB-ARNT;ARNT. Kind of data set: EMSA. As to conditions: MEDG (25 mM MOPS pH 7.5, 1 mM EDTA, 1 mM DTT, 10% glycerol), 150 mM KCl (no added KCl for AhRdPASB and AhR/PASB-ARNT), AhR:ARNT:buffer 1:1:8, 10 nM TCDD or 1% ….
The next data set deals with AhRdPASB;ARNT. Kind of data set: EMSA. As to conditions: MEDG (25 mM MOPS pH 7.5, 1 mM EDTA, 1 mM DTT, 10% glycerol), 150 mM KCl (no added KCl for AhRdPASB and AhR/PASB-ARNT), AhR:ARNT:buffer 1:1:8, 10 nM TCDD or 1% ….
The test system of another data set is wtAhR;ARNT. Kind of data set: EMSA. As to conditions: MEDG (25 mM MOPS pH 7.5, 1 mM EDTA, 1 mM DTT, 10% glycerol), 150 mM KCl (no added KCl for AhRdPASB and AhR/PASB-ARNT), AhR:ARNT:buffer 1:1:8, 10 nM TCDD or 1% ….

Results on six compounds are retold here after PMC7177239, “Transitional States in Ligand-Dependent Transformation of the Aryl Hydrocarbon Receptor into Its DNA-Binding Form” (International Journal of Molecular Sciences, 2020).

Changes are numbered by the printed parent chain.

AhRdPASB, sequence (P30561 whole entry): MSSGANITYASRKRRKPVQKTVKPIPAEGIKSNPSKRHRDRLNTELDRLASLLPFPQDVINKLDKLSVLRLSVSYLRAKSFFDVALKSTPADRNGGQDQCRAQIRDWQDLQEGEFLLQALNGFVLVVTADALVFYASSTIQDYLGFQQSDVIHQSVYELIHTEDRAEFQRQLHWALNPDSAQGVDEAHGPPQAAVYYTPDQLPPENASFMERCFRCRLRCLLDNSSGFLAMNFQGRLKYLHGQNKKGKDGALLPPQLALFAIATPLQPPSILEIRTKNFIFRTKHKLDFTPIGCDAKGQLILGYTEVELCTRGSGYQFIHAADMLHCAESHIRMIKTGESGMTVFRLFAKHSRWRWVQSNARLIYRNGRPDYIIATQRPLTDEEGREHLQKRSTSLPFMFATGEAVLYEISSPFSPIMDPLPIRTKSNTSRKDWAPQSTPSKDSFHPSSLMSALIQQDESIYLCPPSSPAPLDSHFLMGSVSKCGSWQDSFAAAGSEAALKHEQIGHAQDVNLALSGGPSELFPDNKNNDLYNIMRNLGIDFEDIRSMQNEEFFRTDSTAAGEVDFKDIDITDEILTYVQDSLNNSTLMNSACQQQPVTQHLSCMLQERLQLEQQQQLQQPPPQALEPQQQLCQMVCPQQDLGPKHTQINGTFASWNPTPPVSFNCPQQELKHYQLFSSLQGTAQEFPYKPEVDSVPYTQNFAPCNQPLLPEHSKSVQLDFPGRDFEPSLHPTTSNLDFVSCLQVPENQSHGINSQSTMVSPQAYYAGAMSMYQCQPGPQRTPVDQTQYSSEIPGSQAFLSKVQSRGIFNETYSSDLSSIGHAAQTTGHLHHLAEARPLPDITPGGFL
wild type aryl hydrocarbon receptor (mouse), sequence (P30561 whole entry): as above

The term Kd denotes the free concentration of one partner at which half of the binding sites on the other are occupied at equilibrium, for simple one-to-one binding. Lower therefore signals higher affinity. For the compound `Clc1cc2c(cc1Cl)Oc1cc(Cl)c(Cl)cc1O2` [TCDD, 2,3,7,8-tetrachlorodibenzo-p-dioxin], the Kd in data set [1] was determined as 4.6 ± 0.3 nM; in data set [2] it was 5 ± 0.4 nM.
For the compound “AhR F281A (from UniProt P30561 1-848) (natural protein)”, the percent inhibition by 20 mM sodium molybdate of constitutive AhR transformation/DNA binding in vitro (gel retardation) in data set [3] was 5%.
Compound AhR/PASB-ARNT came in with a percent inhibition by sodium molybdate of constitutive AhR transformation/DNA binding in vitro (gel retardation) in data set [3] of 9.1%.
On the same count and under the same terms, the value for “AhRdPASB (from UniProt P30561 1-848) (natural protein)” was 4.3%.
In the case of DRE3, the binding signal (% of wt DNA binding) in the data set with AhR A375V;ARNT was 55. Moreover, the binding signal (% inhibition by molybdate) turned out to be 61.7 with AhR D371A;ARNT; 5 in the data set on AhR F281A;ARNT; 67.1 in the data set on AhR R217A;ARNT; 9.1 with AhR/PASB-ARNT;ARNT; 4.3 in the data set on AhRdPASB;ARNT; 69.6 with wtAhR;ARNT. The binding signal (% DNA binding (reference)) in the data set on wtAhR;ARNT stood at 100.
“wild type aryl hydrocarbon receptor (mouse) (from UniProt P30561 1-848) (natural protein)” registered a percent inhibition by sodium molybdate (up to 20 mM) of TCDD-dependent AhR transformation/DNA binding in vitro (gel retardation) in [3] of 69.6%.
